According to patent US11033620B2, “Combination therapies targeting tumor-associated stroma or tumor cells and microtubules” (BIOMED VALLEY DISCOVERIES, INC., priority 2014, dated 2021):

Test system: H460 cells
Assay: Efficacy of M830 in the H460 non-small cell lung carcinoma xenograft model
Format: in vivo, mouse
Conditions: combination partner Paclitaxel
Method: Animals were monitored for regression responses.
The statistical tests were not adjusted for multiple comparisons.
Cultured H460 cells were harvested during exponential growth and resuspended in phosphate buffered saline at a concentration of 1×10^8 cells/mL. 1.0×10^7 tumor cells were injected subcutaneously into the flank of athymic nude mice. Animals were euthanized when tumors reached the pre-determined volume endpoint of 2000 mm^3 or on the final day (Day 88), whichever came first.

B1: M830: TEM8 monoclonal antibody (hIgG1), VH SEQ ID NO:5, VL SEQ ID NO:6 (antibody, V domains shown)
VH: EVQLVESGGGVVQPGRSVRLSCAASGFTFSTYTMHWVRQAPGKGLEWVAIISNDGSNKYYADPVRGRFTISRDNSKNTLYLQMNSLRAEDTAVYYCVRGSSWYRGNWFDPWGQGTLVTVSS
VL: DIQMTQSPSSLSASVGDRVTIACRASQTISRYLNWYQQKPGKAPKLLIYAASSLQSGVSSRFSGSGSGTEFTLTISSLQPEDFATYFCQQTYSPPITFGQGTRLEIKR
modifications: TEM830 mAb VH; TEM830 mAb VL
regression (in % Tumor Reduction vs. Vehicle at Day 21 cell): −61%
